Results as given in US20210268096A1 (TRELLIS BIOSCIENCE, published 2021).

T1: recombinant RSV G[161-197] (respiratory syncytial virus (RSV), UniProt P03423 161-197)
T1 chain: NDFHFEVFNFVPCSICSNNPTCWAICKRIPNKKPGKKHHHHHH

B1: mAb 3D3 (antibody, V domains shown)
VH: EEQLVESGGGLVQPGRSLRLSCVGSGLRFEEHAMHWVRQAPGRGLEWVSGISWNSGSVGYADSVKGRFTTSRDNAKDILFLEMNTLRSEDTALYFCAIMVATTKNDFHYYKDVWGKGTTVTVSS
VL: QIVLTQSPATLSLSPGERATLSCKASQSVSNHLAWYQQKPGQAPRLLIYETSNRATGIPPRFSGSGSGTDFTLTISSLEPEDFAVYYCQQRNNWYTFGQGTKLEIK
B2: mAb 2D10 (antibody, V domains shown)
VH: QVQLVQSGPEVKKPGASVRLSCKASGYVFTNYGVSWVRQAPGQGLEWMGWSSPYNGNTYYAQKLKARVTMTTDTSTNTAYMELRSLRSDDTAVYYCGRDMLGVVQAVAGPFDSWGQGTLVTVSS
VL: DTPMTQSPSSVSASVGDRVTISCRASQGISNSLAWYQQKLGKAPQLLIYAASSLQSGVPSRFSGSGSGTDFTLTISSLQPEDFATYYCQQTNTFPFTFGPGTKVEVRR

Legend:
[1] = target: human chemokine receptor CX3CR1 (human) (UniProt P49238); experiment: cell-based or functional assay
[2] = target: T1, recombinant RSV G[161-197]; experiment: cell-based or functional assay

Chain of human chemokine receptor CX3CR1 (human) (P49238 whole entry): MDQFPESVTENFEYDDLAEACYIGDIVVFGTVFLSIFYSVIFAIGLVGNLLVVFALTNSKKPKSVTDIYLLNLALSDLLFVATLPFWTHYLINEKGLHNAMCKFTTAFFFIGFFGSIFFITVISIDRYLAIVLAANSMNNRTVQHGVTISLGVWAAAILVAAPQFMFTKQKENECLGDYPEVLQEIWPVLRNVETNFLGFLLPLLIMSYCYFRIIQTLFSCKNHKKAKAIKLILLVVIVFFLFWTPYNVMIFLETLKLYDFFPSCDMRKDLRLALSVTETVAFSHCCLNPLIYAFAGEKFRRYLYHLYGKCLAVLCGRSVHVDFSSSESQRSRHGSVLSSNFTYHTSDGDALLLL

Molecule | chemotactic index (fold-increase in THP-1 cell migration vs serum-free media) (fold (chemotactic index)) [1] | chemotactic index of 5 nM RSV G[161-197] pre-incubated with 25 nM mAb [2]
RSV G ectodomain (G[ecto]) (from UniProt P03423 64-298) | 3.9 | –
recombinant RSV G[161-197] (from UniProt P03423 161-197) (peptide) | 4.2 | –
B1 | – | 1.5 fold (chemotactic index)
B2 | – | 1 fold (chemotactic index)
